Assay results as given in patent publication US20220411523A1.
pKd: −log10 of the molar value.

Columns and labels:
[1] = biological target: h4-1BB-His antigen (Acro company, product number: Q07011-1) (human) (UniProt Q07011); assay: BLI (Fortebio), h4-1BB-His
[2] = biological target: human 4-1BB full length, on the cell surface (human) (UniProt Q07011); assay: FACS, transiently transfected Expi293 cells (WT)
[3] = biological target: Human 4-1BB + Mouse 4-1BB domain1,2A,2B(aa24-86) (human; mouse); assay: FACS, transiently transfected Expi293 cells (cell A)
Human 4-1BB + Mouse 4-1BB domain1,2A,2B(aa24-86) (human; mouse), sequence (chain, as listed by the source): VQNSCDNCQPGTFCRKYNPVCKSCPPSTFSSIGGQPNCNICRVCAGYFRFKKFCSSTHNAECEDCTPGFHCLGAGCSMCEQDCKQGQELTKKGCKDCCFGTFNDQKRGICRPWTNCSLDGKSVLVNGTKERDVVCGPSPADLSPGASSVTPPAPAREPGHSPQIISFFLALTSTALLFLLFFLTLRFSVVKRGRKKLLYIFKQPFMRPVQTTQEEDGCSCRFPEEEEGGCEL

[4] = biological target: Human 4-1BB + Mouse 4-1BB domain2B,3A,3B(aa64-118) (human; mouse) (UniProt Q07011); assay: FACS, transiently transfected Expi293 cells (cell B)
Human 4-1BB + Mouse 4-1BB domain2B,3A,3B(aa64-118) (human; mouse), sequence (Q07011 other isoform, or with tags, fused parts or gaps): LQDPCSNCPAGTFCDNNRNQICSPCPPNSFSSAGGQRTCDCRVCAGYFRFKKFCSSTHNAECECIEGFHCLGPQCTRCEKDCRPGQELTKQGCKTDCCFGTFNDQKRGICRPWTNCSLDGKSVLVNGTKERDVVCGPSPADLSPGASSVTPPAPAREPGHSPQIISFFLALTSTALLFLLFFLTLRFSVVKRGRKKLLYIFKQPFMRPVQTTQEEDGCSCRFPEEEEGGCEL

[5] = biological target: Human 4-1BB + Mouse 4-1BB domain3A,3B,4A(aa87-133) (human; mouse) (UniProt Q07011); assay: FACS, transiently transfected Expi293 cells (cell C)
Human 4-1BB + Mouse 4-1BB domain3A,3B,4A(aa87-133) (human; mouse), sequence (Q07011 other isoform, or with tags, fused parts or gaps): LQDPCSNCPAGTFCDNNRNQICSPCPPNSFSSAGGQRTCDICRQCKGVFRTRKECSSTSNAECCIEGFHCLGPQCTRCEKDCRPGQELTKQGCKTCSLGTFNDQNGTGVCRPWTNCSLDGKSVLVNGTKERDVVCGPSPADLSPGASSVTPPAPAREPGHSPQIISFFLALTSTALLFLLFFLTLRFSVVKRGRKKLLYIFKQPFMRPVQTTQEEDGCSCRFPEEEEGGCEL

[6] = biological target: Human 4-1BB + Mouse 4-1BB domain3B,4A,4B(aa97-159) (human; mouse) (UniProt Q07011); assay: FACS, transiently transfected Expi293 cells (cell D)
Human 4-1BB + Mouse 4-1BB domain3B,4A,4B(aa97-159) (human; mouse), sequence (Q07011 other isoform, or with tags, fused parts or gaps): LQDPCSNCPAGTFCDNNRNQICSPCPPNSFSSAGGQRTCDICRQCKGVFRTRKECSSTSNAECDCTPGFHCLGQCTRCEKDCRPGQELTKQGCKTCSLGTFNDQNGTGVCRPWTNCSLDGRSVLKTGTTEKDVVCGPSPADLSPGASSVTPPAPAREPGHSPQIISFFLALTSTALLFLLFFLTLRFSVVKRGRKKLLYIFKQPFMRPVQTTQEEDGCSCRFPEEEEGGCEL

[7] = biological target: Human 4-1BB + Mouse 4-1BB domain4A,4B,NF(aa119-186) (human; mouse); assay: FACS, transiently transfected Expi293 cells (cell E)
Human 4-1BB + Mouse 4-1BB domain4A,4B,NF(aa119-186) (human; mouse), sequence (chain, as listed by the source): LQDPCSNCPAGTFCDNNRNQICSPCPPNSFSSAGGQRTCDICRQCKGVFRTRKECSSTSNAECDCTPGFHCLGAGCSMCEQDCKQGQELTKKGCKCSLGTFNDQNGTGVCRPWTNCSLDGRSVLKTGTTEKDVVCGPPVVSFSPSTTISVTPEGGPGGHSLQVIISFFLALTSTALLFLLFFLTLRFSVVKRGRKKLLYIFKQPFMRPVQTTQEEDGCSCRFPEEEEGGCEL

[8] = biological target: Human 4-1BB + Mouse 4-1BB domain1,4B,NF(aa24-46,aa139-186) (human; mouse); assay: FACS, transiently transfected Expi293 cells (cell F)
Human 4-1BB + Mouse 4-1BB domain1,4B,NF(aa24-46,aa139-186) (human; mouse), sequence (chain, as listed by the source): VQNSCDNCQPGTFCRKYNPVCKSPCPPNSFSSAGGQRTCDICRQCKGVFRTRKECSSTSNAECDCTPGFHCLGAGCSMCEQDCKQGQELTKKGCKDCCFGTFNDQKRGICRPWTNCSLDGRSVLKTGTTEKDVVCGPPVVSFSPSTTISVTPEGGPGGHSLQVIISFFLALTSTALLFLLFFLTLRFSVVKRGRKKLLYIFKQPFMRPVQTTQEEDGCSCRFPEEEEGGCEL

[9] = biological target: human 4-1BB full length, on the cell surface (human) (UniProt Q07011); assay: FACS competition, CHO-K1-hu4-1BB; labelled Bio-4-1BBL 2 µg/ml fixed, competitor varied
[10] = biological target: human 4-1BB full length, on the cell surface (human) (UniProt Q07011); assay: FACS competition, CHO-K1-hu4-1BB; labelled Bio-Hanke10F4 1.5 µg/ml fixed, competitor varied

human 4-1BB full length, on the cell surface (human), sequence (Q07011 24-255 limits assumed): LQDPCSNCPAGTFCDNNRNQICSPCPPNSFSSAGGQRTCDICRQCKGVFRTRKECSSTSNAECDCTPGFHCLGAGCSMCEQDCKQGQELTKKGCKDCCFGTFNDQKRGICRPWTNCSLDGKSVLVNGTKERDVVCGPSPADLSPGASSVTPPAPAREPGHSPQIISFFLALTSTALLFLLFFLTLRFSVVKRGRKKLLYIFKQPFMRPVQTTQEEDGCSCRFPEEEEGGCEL
Urelumab (antibody), sequence (VH): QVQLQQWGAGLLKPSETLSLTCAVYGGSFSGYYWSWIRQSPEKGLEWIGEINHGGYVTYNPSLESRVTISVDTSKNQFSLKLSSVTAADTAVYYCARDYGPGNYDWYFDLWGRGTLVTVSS
Urelumab (antibody), sequence (VL): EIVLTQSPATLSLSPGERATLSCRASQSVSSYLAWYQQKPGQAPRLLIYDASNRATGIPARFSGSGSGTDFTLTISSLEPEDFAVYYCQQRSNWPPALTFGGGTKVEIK
human 4-1BBL-hIgG (Fc fusion), sequence (chain, part): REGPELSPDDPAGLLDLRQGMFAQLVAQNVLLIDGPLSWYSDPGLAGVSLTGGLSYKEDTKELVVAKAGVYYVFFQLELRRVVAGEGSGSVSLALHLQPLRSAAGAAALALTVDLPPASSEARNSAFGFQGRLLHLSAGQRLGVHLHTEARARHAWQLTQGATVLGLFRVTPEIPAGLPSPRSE
h4-1BB-His antigen (Acro company, product number: Q07011-1) (human), sequence (Q07011 24-186): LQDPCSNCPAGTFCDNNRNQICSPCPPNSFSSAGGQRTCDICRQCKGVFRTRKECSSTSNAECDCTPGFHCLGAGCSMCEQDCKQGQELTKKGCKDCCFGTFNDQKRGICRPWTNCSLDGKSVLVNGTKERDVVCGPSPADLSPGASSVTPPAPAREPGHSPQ

| Substance | pKd [1] | Mean fluorescence intensity [2] | Mean fluorescence intensity [3] | Mean fluorescence intensity [4] | Mean fluorescence intensity [5] | Mean fluorescence intensity [6] | Mean fluorescence intensity [7] | Mean fluorescence intensity [8] | FACS signal of Bio-4-1BBL at (B:A) Ratio 0.03906 [9] | FACS signal of Bio-4-1BBL at (B:A) Ratio 0.15625 [9] | FACS signal of Bio-4-1BBL at (B:A) Ratio 0.625 [9] | FACS signal of Bio-4-1BBL at (B:A) Ratio 2.5 [9] | FACS signal of Bio-4-1BBL at (B:A) Ratio 10 [9] | FACS signal of Bio-4-1BBL at (B:A) Ratio 40 [9] | FACS signal of Bio-Hanke10F4 at (B:A) Ratio 0.058593 [10] | FACS signal of Bio-Hanke10F4 at (B:A) Ratio 0.23437 [10] | FACS signal of Bio-Hanke10F4 at (B:A) Ratio 0.9375 [10] | FACS signal of Bio-Hanke10F4 at (B:A) Ratio 3.75 [10] | FACS signal of Bio-Hanke10F4 at (B:A) Ratio 15 [10] | FACS signal of Bio-Hanke10F4 at (B:A) Ratio 60 [10] |
| --- | --- | --- | --- | --- | --- | --- | --- | --- | --- | --- | --- | --- | --- | --- | --- | --- | --- | --- | --- | --- |
| Urelumab (antibody) | 8.24 | 146000 | 1820 | 313000 | 193000 | 123000 | 194000 | 4910 | – | – | – | – | – | – | – | – | – | – | – | – |
| Utomilumab (antibody) | – | – | 19000 | – | – | – | – | – | – | – | – | – | – | – | – | – | – | – | – | – |
| human 4-1BBL-hIgG (Fc fusion) | – | – | – | – | – | – | – | – | 7740 | 7910 | 6850 | 6320 | 3770 | 3220 | 6310 | 6580 | 4860 | 2290 | 584 | 254 |
